In patent publication US20150344570A1 (published 2015):

biological target: T1, FcγRIa (human, UniProt P12314 16-292); assay: SPR (Biacore), antibody captured on antigen-peptide chip, FcγRIa as analyte; binding activity relative to control GpH7-B3/GpL16-k0 (HoCon Ab) x100
T1 construct: extracellular domain; Soluble extracellular domain with C-terminal His tag, expressed in FreeStyle293 cells; analyte in Biacore; also called FcgRI; CD64; not shown: His tag attached to the C terminus
Procedure: Analysis of interaction between objective antibody and the FcγR was carried out using Biacore T100 (GE Healthcare). HBS-EP+ (GE Healthcare) was used as the running buffer, and the measurement temperature was set to 25° C. Chips produced by immobilizing the antigen peptide by the amine coupling method to a Series S Sencor Chip CM5 (GE Healthcare), or alternatively, chips produced by allowing preliminarily biotinylated antigen peptides to interact with and immobilize onto a Series S Sensor Chip SA (certified) (GE Healthcare) were used. Antibodies of interest were captured onto an antigen peptide-immobilized chip, and allowed to interact to each FcγR diluted with running buffer. To regenerate and repeatedly use the chip, the antibodies captured on the chip were washed off by reacting 10 mM glycine-HCl, pH 1.5.

T1 sequence (P12314 16-292): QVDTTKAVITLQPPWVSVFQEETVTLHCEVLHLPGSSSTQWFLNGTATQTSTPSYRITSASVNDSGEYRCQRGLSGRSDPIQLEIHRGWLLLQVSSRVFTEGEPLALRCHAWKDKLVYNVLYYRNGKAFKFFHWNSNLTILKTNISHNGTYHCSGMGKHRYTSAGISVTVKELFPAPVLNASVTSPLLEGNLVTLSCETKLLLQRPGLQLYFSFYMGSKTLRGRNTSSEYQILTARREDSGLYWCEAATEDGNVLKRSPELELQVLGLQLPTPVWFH

Row | Ho/Con_1a | Binder
1 | 103 % of control (=100) | GpH7-B3 variant Y296_12R/GpL16-k0 (homodimerized antibody, Ho Ab) (antibody, human IgG1, kappa, Anti-glypican-3 IgG1 (G1d with K439E); same alteration in both H chains) heavy: not shown light: DIVMTQSPLSLPVTPGEPASISCQASESLVHSNRNTYLHWYLQKPGQSPQLLIYKVSNRFSGVPDRFSGSGSGTDFTLKISRVEAEDVGVYYCSQNTHVPPTFGQGTKVEIERTVAAPSVFIFPPSDEQLKSGTASVVCLLNNFYPREAKVQWKVDNALQSGNSQESVTEQDSKDSTYSLSSTLTLSKADYEKHKVYACEVTHQGLSSPVTKSFNRGEC
2 | 105 % of control (=100) | GpH7-B3 variant Y296_13S/GpL16-k0 (homodimerized antibody, Ho Ab) (antibody, human IgG1, kappa, Anti-glypican-3 IgG1 (G1d with K439E); same alteration in both H chains) heavy: not shown light: DIVMTQSPLSLPVTPGEPASISCQASESLVHSNRNTYLHWYLQKPGQSPQLLIYKVSNRFSGVPDRFSGSGSGTDFTLKISRVEAEDVGVYYCSQNTHVPPTFGQGTKVEIERTVAAPSVFIFPPSDEQLKSGTASVVCLLNNFYPREAKVQWKVDNALQSGNSQESVTEQDSKDSTYSLSSTLTLSKADYEKHKVYACEVTHQGLSSPVTKSFNRGEC
3 | 105 % of control (=100) | GpH7-B3 variant Y296_14T/GpL16-k0 (homodimerized antibody, Ho Ab) (antibody, human IgG1, kappa, Anti-glypican-3 IgG1 (G1d with K439E); same alteration in both H chains) heavy: not shown light: DIVMTQSPLSLPVTPGEPASISCQASESLVHSNRNTYLHWYLQKPGQSPQLLIYKVSNRFSGVPDRFSGSGSGTDFTLKISRVEAEDVGVYYCSQNTHVPPTFGQGTKVEIERTVAAPSVFIFPPSDEQLKSGTASVVCLLNNFYPREAKVQWKVDNALQSGNSQESVTEQDSKDSTYSLSSTLTLSKADYEKHKVYACEVTHQGLSSPVTKSFNRGEC
4 | 105 % of control (=100) | GpH7-B3 variant Y296_16H/GpL16-k0 (homodimerized antibody, Ho Ab) (antibody, human IgG1, kappa, Anti-glypican-3 IgG1 (G1d with K439E); same alteration in both H chains) heavy: not shown light: DIVMTQSPLSLPVTPGEPASISCQASESLVHSNRNTYLHWYLQKPGQSPQLLIYKVSNRFSGVPDRFSGSGSGTDFTLKISRVEAEDVGVYYCSQNTHVPPTFGQGTKVEIERTVAAPSVFIFPPSDEQLKSGTASVVCLLNNFYPREAKVQWKVDNALQSGNSQESVTEQDSKDSTYSLSSTLTLSKADYEKHKVYACEVTHQGLSSPVTKSFNRGEC
5 | 105 % of control (=100) | GpH7-B3 variant Y296_18N/GpL16-k0 (homodimerized antibody, Ho Ab) (antibody, human IgG1, kappa, Anti-glypican-3 IgG1 (G1d with K439E); same alteration in both H chains) heavy: not shown light: DIVMTQSPLSLPVTPGEPASISCQASESLVHSNRNTYLHWYLQKPGQSPQLLIYKVSNRFSGVPDRFSGSGSGTDFTLKISRVEAEDVGVYYCSQNTHVPPTFGQGTKVEIERTVAAPSVFIFPPSDEQLKSGTASVVCLLNNFYPREAKVQWKVDNALQSGNSQESVTEQDSKDSTYSLSSTLTLSKADYEKHKVYACEVTHQGLSSPVTKSFNRGEC
6 | 104 % of control (=100) | GpH7-B3 variant Y296_19Q/GpL16-k0 (homodimerized antibody, Ho Ab) (antibody, human IgG1, kappa, Anti-glypican-3 IgG1 (G1d with K439E); same alteration in both H chains) heavy: not shown light: DIVMTQSPLSLPVTPGEPASISCQASESLVHSNRNTYLHWYLQKPGQSPQLLIYKVSNRFSGVPDRFSGSGSGTDFTLKISRVEAEDVGVYYCSQNTHVPPTFGQGTKVEIERTVAAPSVFIFPPSDEQLKSGTASVVCLLNNFYPREAKVQWKVDNALQSGNSQESVTEQDSKDSTYSLSSTLTLSKADYEKHKVYACEVTHQGLSSPVTKSFNRGEC
7 | 106 % of control (=100) | GpH7-B3 variant Y296_20W/GpL16-k0 (homodimerized antibody, Ho Ab) (antibody, human IgG1, kappa, Anti-glypican-3 IgG1 (G1d with K439E); same alteration in both H chains) heavy: not shown light: DIVMTQSPLSLPVTPGEPASISCQASESLVHSNRNTYLHWYLQKPGQSPQLLIYKVSNRFSGVPDRFSGSGSGTDFTLKISRVEAEDVGVYYCSQNTHVPPTFGQGTKVEIERTVAAPSVFIFPPSDEQLKSGTASVVCLLNNFYPREAKVQWKVDNALQSGNSQESVTEQDSKDSTYSLSSTLTLSKADYEKHKVYACEVTHQGLSSPVTKSFNRGEC
8 | 110 % of control (=100) | GpH7-B3 variant Y300_02A/GpL16-k0 (homodimerized antibody, Ho Ab) (antibody, human IgG1, kappa, Anti-glypican-3 IgG1 (G1d with K439E); same alteration in both H chains) heavy: not shown light: DIVMTQSPLSLPVTPGEPASISCQASESLVHSNRNTYLHWYLQKPGQSPQLLIYKVSNRFSGVPDRFSGSGSGTDFTLKISRVEAEDVGVYYCSQNTHVPPTFGQGTKVEIERTVAAPSVFIFPPSDEQLKSGTASVVCLLNNFYPREAKVQWKVDNALQSGNSQESVTEQDSKDSTYSLSSTLTLSKADYEKHKVYACEVTHQGLSSPVTKSFNRGEC
9 | 112 % of control (=100) | GpH7-B3 variant Y300_03V/GpL16-k0 (homodimerized antibody, Ho Ab) (antibody, human IgG1, kappa, Anti-glypican-3 IgG1 (G1d with K439E); same alteration in both H chains) heavy: not shown light: DIVMTQSPLSLPVTPGEPASISCQASESLVHSNRNTYLHWYLQKPGQSPQLLIYKVSNRFSGVPDRFSGSGSGTDFTLKISRVEAEDVGVYYCSQNTHVPPTFGQGTKVEIERTVAAPSVFIFPPSDEQLKSGTASVVCLLNNFYPREAKVQWKVDNALQSGNSQESVTEQDSKDSTYSLSSTLTLSKADYEKHKVYACEVTHQGLSSPVTKSFNRGEC
